Source: publication PMC11685497 (Nature Communications, 2024)

T1: wild-type soluble CD73 (ecto-5'-nucleotidase), recombinant (Homo sapiens)
T1 chain: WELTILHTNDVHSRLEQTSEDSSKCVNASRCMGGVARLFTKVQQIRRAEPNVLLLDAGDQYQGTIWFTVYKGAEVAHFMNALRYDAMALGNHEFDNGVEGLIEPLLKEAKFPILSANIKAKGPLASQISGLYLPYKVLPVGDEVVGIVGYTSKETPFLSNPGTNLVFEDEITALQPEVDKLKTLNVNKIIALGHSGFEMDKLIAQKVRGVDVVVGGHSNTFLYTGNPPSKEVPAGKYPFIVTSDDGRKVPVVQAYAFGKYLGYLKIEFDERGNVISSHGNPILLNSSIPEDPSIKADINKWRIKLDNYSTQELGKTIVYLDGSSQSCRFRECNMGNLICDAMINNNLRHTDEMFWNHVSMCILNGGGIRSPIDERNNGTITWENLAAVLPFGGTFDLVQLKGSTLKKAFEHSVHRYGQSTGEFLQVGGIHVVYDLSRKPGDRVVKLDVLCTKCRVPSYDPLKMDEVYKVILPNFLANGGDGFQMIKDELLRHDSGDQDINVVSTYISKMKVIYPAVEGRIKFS


Legend:
[1] = molecular target: wild-type soluble CD73 (ecto-5'-nucleotidase), recombinant (human); experiment: cryo-EM structure
[2] = molecular target: T1, wild-type soluble CD73 …; experiment: HDX-MS
[3] = molecular target: human CD73, membrane-bound, on CHO-K1 cells (CHO-K1-huCD73-3F4) (Homo sapiens, UniProt P21589); experiment: flow cytometry on cells
[4] = molecular target: T1, wild-type soluble CD73 …; experiment: negative-stain EM

| Molecule | stoichiometry N [1] | binding result [2] | EC50 [3] [nM] | binding result [4] |
| --- | --- | --- | --- | --- |
| HB0038 (humanized anti-human CD73 monoclonal IgG1, L234A/L235A) (antibody, V domains shown) VH: QVQLVESGGGLVKPGGSLRLSCAASGFTFSKYAMSWIRQAPGKGLEWVAEISSGGGYINYADSVKGRFTISRDNAKNSLYLQMNSLRAEDTAVYYCARAIYYYGSSYNYYAMDYWGQGTTVTVS VL: DIQMTQSPSSLSASVGDRVTITCRASQDVGTAEAWYQQKPGKAPKLLIYWASTRHTGVPSRFSGSGSGTDFTLTISSLQPEDFATYYCQQYSSYPLTFGQGTKL | – | binds | 11.8 | – |
| HB0039 (humanized anti-human CD73 monoclonal IgG1, L234A/L235A) (antibody, V domains shown) VH: QVQLVQSGAEVKKPGASVKLSCKASGYTFTSYWIHWVRQAPGQGLEWIGMIHPNSGSTYYNEKFKGRATLTVDKSTSTAYMELSSLRSEDTAVYYCARYYGSDYEWYFDVWGQGTTV VL: IQMTQSPSSMSASVGDRVTITCKASQNVRTAVVWYQQKPGKAPKALIYLASNRHTGVPDRFSGSGSGTDFTLTISSLQPEDFATYFCLQHWNYPYTFGQGTKL | – | – | 0.24 | binds |

The next lines start with the values.

| stoichiometry N [1] | binding result [2] | EC50 [3] [nM] | binding result [4] | Molecule |
| --- | --- | --- | --- | --- |
| 2 | – | – | – | wild-type soluble CD73 (ecto-5'-nucleotidase), recombinant (enzyme) |
| – | – | – | binds | HB0038 Fab (Fab, V domains shown) VH: QVQLVESGGGLVKPGGSLRLSCAASGFTFSKYAMSWIRQAPGKGLEWVAEISSGGGYINYADSVKGRFTISRDNAKNSLYLQMNSLRAEDTAVYYCARAIYYYGSSYNYYAMDYWGQGTTVTVS VL: DIQMTQSPSSLSASVGDRVTITCRASQDVGTAEAWYQQKPGKAPKLLIYWASTRHTGVPSRFSGSGSGTDFTLTISSLQPEDFATYYCQQYSSYPLTFGQGTKL |
| – | binds | – | – | HB0039 Fab (Fab, V domains shown) VH: QVQLVQSGAEVKKPGASVKLSCKASGYTFTSYWIHWVRQAPGQGLEWIGMIHPNSGSTYYNEKFKGRATLTVDKSTSTAYMELSSLRSEDTAVYYCARYYGSDYEWYFDVWGQGTTV VL: IQMTQSPSSMSASVGDRVTITCKASQNVRTAVVWYQQKPGKAPKALIYLASNRHTGVPDRFSGSGSGTDFTLTISSLQPEDFATYFCLQHWNYPYTFGQGTKL |
